Target: T1, purified and recombinant USF1 protein (UniProt P22415 1-310, limits assumed)
T1 construct: also called USF1 recombinant factor; USF1 recombinant proteins
Experiment: EMSA with recombinant proteins on radiolabelled NGE DNA probe, PhosphoImager
Source text: We then analysed whether STAT1 and USF1 proteins formed the U complex co-operatively after induction by interferon γ. […] Further, adding increasing quantities of activated STAT1 to a given quantity of USF1 in the presence of an excess of free NGE probe encouraged the formation of STAT1/USF1 complexes rather than binding of USF1 alone.

T1 sequence (P22415 whole entry): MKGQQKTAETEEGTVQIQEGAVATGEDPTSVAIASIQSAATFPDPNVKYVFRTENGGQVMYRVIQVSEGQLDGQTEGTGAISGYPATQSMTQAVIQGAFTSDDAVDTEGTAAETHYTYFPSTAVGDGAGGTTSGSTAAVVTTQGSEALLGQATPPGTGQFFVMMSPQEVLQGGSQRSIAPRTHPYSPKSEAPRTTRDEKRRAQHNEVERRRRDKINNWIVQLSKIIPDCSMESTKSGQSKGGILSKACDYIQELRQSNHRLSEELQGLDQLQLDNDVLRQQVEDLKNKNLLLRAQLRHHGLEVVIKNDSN

B1: purified and activated recombinant STAT1 protein (other, UniProt P42224 1-750, looked up)
chain: MSQWYELQQLDSKFLEQVHQLYDDSFPMEIRQYLAQWLEKQDWEHAANDVSFATIRFHDLLSQLDDQYSRFSLENNFLLQHNIRKSKRNLQDNFQEDPIQMSMIIYSCLKEERKILENAQRFNQAQSGNIQSTVMLDKQKELDSKVRNVKDKVMCIEHEIKSLEDLQDEYDFKCKTLQNREHETNGVAKSDQKQEQLLLKKMYLMLDNKRKEVVHKIIELLNVTELTQNALINDELVEWKRRQQSACIGGPPNACLDQLQNWFTIVAESLQQVRQQLKKLEELEQKYTYEHDPITKNKQVLWDRTFSLFQQLIQSSFVVERQPCMPTHPQRPLVLKTGVQFTVKLRLLVKLQELNYNLKVKVLFDKDVNERNTVKGFRKFNILGTHTKVMNMEESTNGSLAAEFRHLQLKEQKNAGTRTNEGPLIVTEELHSLSFETQLCQPGLVIDLETTSLPVVVISNVSQLPSGWASILWYNMLVAEPRNLSFFLTPPCARWAQLSEVLSWQFSSVTKRGLNVDQLNMLGEKLLGPNASPDGLIPWTRFCKENINDKNFPFWLWIESILELIKKHLLPLWNDGCIMGFISKERERALLKDQQPGTFLLRFSESSREGAITFTWVERSQNGGEPDFHAVEPYTKKELSAVTFPDIIRNYKVMAAENIPENPLKYLYPNIDKDHAFGKYYSRPKEAPEPMELDGPKGTGYIKTELISVSEVHPSRLQTTDNLLPMSPEEFDEVSRIVGSVEFDSMMNTV
modifications: activated form (phosphorylated); the residue numbers are not given
notes: also called STAT1 factor
  probe bound to the complex, as fold of the sum of probe bound to USF1 alone and STAT1 alone: ~2 fold

From patent US6379894 (NOVIMAUNE S A, dated 1999)
